The supplement of paper PMC9732359
± gives the uncertainty stated by the source.

Test: protein stability index of a GFP-peptide fusion (yeast GPS) (PSI 1-4); higher = more stable; sorted into four equal gates, so the index is relative within each strain
Summary of the method: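 Tiled yeast protein peptides of 17 residues were each joined downstream of GFP, on plasmids that also express Cherry. The pooled library was maintained in yeast, and mid-log cultures in leucine-free medium were sorted into four equal gates on the GFP/Cherry ratio. Plasmids from every gate were amplified by PCR and sequenced on Illumina, with barcodes linking reads to strains. The protein stability index of a peptide is its gate-number-weighted read frequency summed over the gates.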

Sequence	protein stability index (doa10∆)	protein stability index (pdr5∆)	protein stability index (san1∆)	protein stability index (ubr1∆)
LLKKKDDPSKVRLLCRS [YLR335W/NUP2]	2.12 ± 0.047	1.85 ± 0.063	1.98 ± 0.089	2.61 ± 0.15
PMLMANNDVFTIGPYRA [SSN3]	3.04 ± 0.07	3.3 ± 0.082	3.13 ± 0.072	3.14 ± 0.058
TKVNNQLIKVAVHNGDR [RPL9B]	1.92 ± 0.074	1.52 ± 0.06	1.78 ± 0.086	2.4 ± 0.029
SGQTPVQSKARYTVRTF [RPL11A]	2.29 ± 0.094	2.06 ± 0.081	1.72 ± 0.13	1.71 ± 0.089
VICSVTGPIEPKARQEL [RRP46]	2.79 ± 0.081	3.06 ± 0.11	2.75 ± 0.051	2.88 ± 0.054
NYDIITASSLAHDYNND [YML103C/NUP188]	2.64 ± 0.063	2.05 ± 0.075	2.61 ± 0.087	2.33 ± 0.056
FDSLRNFIVHSPMLKRI [GRR1]	2.89 ± 0.084	2.47 ± 0.079	2.8 ± 0.074	2.64 ± 0.076
DEYLGSHTDQPANVLLV [NNF1]	3.57 ± 0.25	–	–	2.92 ± 0.13
GRLLRAMFEICLKRGWG [BRR2]	1.75 ± 0.11	1.59 ± 0.091	1.76 ± 0.12	1.81 ± 0.077
YVLSTAVEFESVPLRKG [BRR2]	1.7 ± 0.043	1.45 ± 0.04	1.93 ± 0.083	1.34 ± 0.036
NMEIRNLRLKILTIIEE [GRR1]	1.62 ± 0.065	1.53 ± 0.049	1.83 ± 0.078	1.33 ± 0.046
EQTTGGNNKDLKNTMQY [RPB4]	3.24 ± 0.11	3.09 ± 0.082	2.65 ± 0.17	3.18 ± 0.19
PSCVYNLIGVITHQGAN [UBP6]	2.64 ± 0.14	2.9 ± 0.13	2.99 ± 0.13	2.48 ± 0.18
SALELVGQLNKVVDQLF [RPN6]	2.84 ± 0.045	2.98 ± 0.065	2.82 ± 0.059	2.68 ± 0.042
IYNGKAFNQVEIRPEML [RPS15]	2.9 ± 0.12	3.04 ± 0.18	3.39 ± 0.11	3.26 ± 0.14
EEDYNEFNSIDRVIFRV [PRP8]	3.27 ± 0.1	3.17 ± 0.11	3.02 ± 0.19	2.94 ± 0.068
KISNSKLLSLLRSKTSA [SIR4]	2.19 ± 0.058	2.45 ± 0.044	2.3 ± 0.08	2.29 ± 0.055
TRNSLGNVIQFIYGEDG [RPO21]	3.01 ± 0.06	2.92 ± 0.053	3.25 ± 0.042	3.28 ± 0.037
LKPDLNKITNQGVTCLH [NAS6]	2.36 ± 0.11	2.05 ± 0.052	3.13 ± 0.079	2.38 ± 0.059
NVKTSVSQLYRISEKSV [RPO31]	3.04 ± 0.11	3.22 ± 0.1	3.12 ± 0.076	3.16 ± 0.083
GKEFGDVSVKMGNTKVH [RRP45]	1.38 ± 0.073	1.53 ± 0.083	2.25 ± 0.069	1.95 ± 0.1
LATLLGHNDWVSQVRVV [ASC1]	1.94 ± 0.085	2.37 ± 0.082	1.89 ± 0.1	1.8 ± 0.047
FHKYRLKRNSWPKTRGV [RPL2A]	2.44 ± 0.099	2.71 ± 0.1	2.83 ± 0.12	2.31 ± 0.091
NQNSSTGAGAFGTGQST [YJL041W/NSP1]	2.33 ± 0.058	1.99 ± 0.062	2.31 ± 0.11	2.6 ± 0.048
SLTKDKSIRKDTVEEKK [SIR4]	3.03 ± 0.064	3.23 ± 0.062	3.1 ± 0.056	3.12 ± 0.069
KGEVVLVNIRTQTSKEQ [ITC1]	2.4 ± 0.075	2.5 ± 0.15	2.58 ± 0.1	2.56 ± 0.095
